The domain aggregation screens of Martell et al. (2025)

experiment: soluble fraction after stress (log2 fold change); higher = more stays soluble; pooled small domains, quantitative proteomics; settings: stress: pH 4
Summary of the method: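 With high-throughput quantitative proteomics, pooled custom libraries of small protein domains were measured after pH 4 stress. Each domain's soluble amount after the stress gives a fold change taken as aggregation propensity. Higher log2 values mean more of the domain stayed soluble.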

Point of comparison: “HMIVVMAADSSREDLDLVQGRIEARGLRAQISQGVERIVIGVLGSLPPDLKDEMELLPGVREVLVIS”, “soluble fraction (log2)” value -1.19. Against it:
- HMIQNEITLMLQVNGKLRGQIQVPSDASKEQIEQLAKDSEAAQKALAGASPKKIIVVPGRLVNIV — higher, 0.183
- HMIQQFTYAFAKDKGVVVLPGRDVLTLGMRAGADPLVLLEARRALGSSFELEPLDRDTYERTLADVFTADA — lower, -1.41
- HMIQRLNVNTEVLSTYIRNSNTPIEYLRQKLPNIDKFLKGELEPTFNQVYALSKLINIPTGLLLLKEPIS — higher, 0.359
- HMIQSEQIPFSKFLKEVDSGRVVQVEIQGNNINGVLSDGSKFKTYSPNYPELVGKLSDKGVSIVASPV — higher, 0.0829
- HMIQTKNVTFTINEKTKIANIPLKSLKILSQEDNRITLSYEKNSLKIDEIISYFSDKNINILDITTD — within 0.2 log units, -1.05
- HMIQYRKILELHFKDISQRTISTSVGSSRNTVSDVIKRSEQLGLERLTDNMNNRWLEEFLFPEKQ — higher, -0.177
- HMIRALVPGQTLHGEIVGRNGGEVQVRLAEDMILNARVDQNIYLELGKDLTFEVKNNGATLTLSPL — higher, -0.552
- HMIRDTTMYPVSVNGKKRYEWTVSKSISDDELKQQVLELEEIKKWIEGHEIKKLIFVPGRAINIV — higher, -0.743
- HMIRDVDYNTFVSMVQEGKVGQVEIQEQNNRILFTDKDERTVYKTAMVPDSDLISRLLEAGVSTS — higher, -0.737
- HMIRTGEVVTGKVINVKEDQIILNIGFKSDGIITRNEYTNDNSLDLRTVVHEGDEIEAKVLKVNDGEGQVV — higher, 0.12
- HMIRVGRPQYKRGEFVSFDFDNGRKKTEMYGRVDVIDSYGTFGQGREVSYDIRASDGILYKHIPESSVYGF — higher, 0.28
- HMIRVVSIEDQPWFVAADVLKSLGMPTDKGVGKYLLALGSDERMLTTHGQIGGKGMAVTTIISESGLY — higher, -0.703
- HMISDAEWKIMNVLWEEQPRTMMQITKELQEETGWTKHTVMTYLKRMESKKIIHYVEGEKAKLYYS — higher, -0.136
- HMISDDLYQAVLDFTLTQDTISISRLQQNFNLGWPRARQLYDQLMQNGIIEPPDEANSAKGAVVIANKRG — within 0.2 log units, -1.06
- HMISIKEAVFPFSRFPGVDTLLGPEMKSTGEVMGLADNFGHAYAKSQIASGSKLPESGTLFVSVKNSD — higher, 0.0851
- HMISKRFQIDEENAHKRIDIFLSHEFDSISRGIVQELIVKGEVLVNDKVTKRNYKLKTGDLVDITINL — higher, 0.247
- HMITDQQKEQLSSLLKQAEAALAKAAANDQVLAAHKDEAVELLKSTSATSADAADLINELTELLKPYQ — higher, -0.605
- HMITEDQVIARIGLLSPAEKSLLKDKLERFRRLTLSEQQHLREFHSALDNHDKRTDLLNVLRKYNDWVNQL — higher, -0.736
- HMITEQEFQRVAAYVKNKAGINLNEKKVLVQGRLDSYMQRKGYSSYDEFMDRVERFPTGPEAEDLMNALTT — higher, 0.0246
- HMITFRINQQSQVGLRLDKFIVQQMPDYSRTRIQSWIKTKNILVNGEGKKSGYALEFDDLVEVTIPE — higher, 0.0398
- HMITGREMDVLEALWSSEKPLVASDIPKMKPSLSISSVQLALRNLVKKKLVEVADIVYSGTVLSRSYRP — higher, -0.477
- HMITIDNYFNKEKELDFSSFPEALRKGHGFVSKATAHGSSWVSYHSSDAIKKTIDIYLSKLNEYLSNNAKA — higher, 0.0989
- HMITLYDLLGVSKTASSQEIKTAFKKKALQYHPDKNDGNPDKEEIFKRINMAYQVLGQPQSRANYDFSITP — higher, 0.0886
- HMITNMIIIMKPNASEEAIEKVKHLIESKGLQAHLSKGDEVTIVGVVGDKTRLHDSNIEISEGVDKIVNVT — higher, -0.0219
- HMITPAGVPPALLPVFDQFTLPDGTLRRGAVAAALRALYGPDAPQSGKRYQMEYDRVMAWHSQYFTSLH — higher, -0.42
- HMITPKQTAETLGIATSTLRRWASEFEPFLSLRTGVKRTYTTDDITTLKRVKDLFAQGLKTEQVREAL — higher, ≥ 0.43
- HMITPNQAAVTLKVSTSTLRRWSSDFEPFLSPRKGVKRLYTIEDIATLKRIQGLYKQGMNTAQVQA — higher, -0.0332
- HMITQQEFQQKLEALLSRAEAESFHIKKEEAESFFSGDELTGEQMKLVFDYLLSKKIIVEGYLK — higher, 0.0629
- HMITTEEVLNRIRKKVDHPATIRELQKALSIADDDRHRFRRRIRTLVASGALVRIRGNRYGLPSK — higher, 0.0429
- HMITTWAGKATTDVYGRVDANPKADAVLVIKTGWTVQVVGSKTAPDGGTWYKLIYNGKTMYANSKFIVK — higher, 0.00106
- HMITVEAPMPGKVLSVNVKAGDKVEAGDVLLILEAMKMQNEIMAPEDGTVSDVRVSAGDTVATGDVMVV — higher, -0.33
- HMIVIMAKESSPAELEGVKNRIESHPGLRPQVFDGVERIVVGVLGSIPPDLKDEIELLPGVIEVVPISK — higher, -0.211
- HMIVVLKHGVTEQQMRNLIAWFKDQGVDVHVSRGIYQTVLGLVGDTSDIDVDLLRMLDIVDAVKRIT — higher, -0.785
- HMIYGNGVTDLKDLANGATIIIPADDSNETRALFLLQQEGLIKLPDDADAAKGVSTLDIVDGGGWVTSM — higher, -0.381
- HMIYKLIADRLKNRINSDEFEVGDALPSEKALAGELEVSVMTIRKALTLLESEKLIVKRHGSGSYVARKSN — higher, 0.0567
- HMIYRTTSVPIDNISTQKFNLQEGWIEMNKNEVEDFIRQKNLELVVTDSNVMLDKFALNGDPNKFKVFKY — higher, 0.104
- HMKADTSPEAQKKIIAAFEPYSVNKDQIEKLIQRRIDSITPAQVIRLRKILASLKDGMSSPEDWFE — higher, 0.076
- HMKAERLLALLTILLSGKRVSARWLSEELEVSERTVYRDVEALSEAGFPVYATTGRDGGFSLIDGF — within 0.2 log units, -1.18
- HMKAKPTLLTPYEERLKGWLETDSRRPKRDRRTGLALFAKLQQEGFTGSYTRVTEYIRRWRDSGG — higher, 0.0729
- HMKALPSAEDVALARESGRVLSTVLQTRAETQQIDFHDDKGAVRSVTLPTTALRLLLDVLTEIGQGNAV — higher, -0.161
- HMKALRNQDVVVGKPLAMAVYDQHGVLLLGRGHVVISESQRQQLLERGFSIDAEQLGRLRAAIEATQRV — higher, 0.0921
- HMKALYHQLVDLLKKRMESGMIPHDKLPSERELTAQYGVSRTTVRLALQELENTGYIYRRHGKGTFVSDI — higher, 0.1
- HMKANIGDQVFTQLKDQIINGEWRPGDRIPSEAQLIQLFGVSRGTVRQAVQKLAGEGLIVTRHGEGSFVQG — higher, -0.0317
- HMKAQLQHIIGSNIKLARNTQGYTQEGLAERAEISVEHLKQVERGKKMLSVESLVNVANALQVSVDSLV — higher, -0.205
- HMKAQVKSVLDDIPGIGQTRRKALMRYFKSLEKIREASVEELKEADAMNERAAQSVYAFFHK — higher, -0.222
- HMKAQVKSVLDEIPGVGPTRRKALMKHFTSIEEIKQAEFETLLEAEGMNRAAAQSVYDFFHN — higher, -0.491
- HMKDESQLVGAEGKAVTPLRPTGVALIGEKRLDVLTEGEFIPRNSDIIVSRVEGNKIIVKLKN — higher, 0.22
- HMKDHLRFEILSFAGDLRNGVVKTRQEFETIFAFYDKYEEIITALKVHNGYVDSEFDFIKEKFKELKSK — higher, 0.194
- HMKDLQAISERMEEIISFAKANDNEISLFIVQDIIKNKKTGIDEDLLNMALYQIKEQGIKVLPA — within 0.2 log units, -1.05
- HMKDSIQIPNVVGMTIKDAQSQYGKSFSIIEQNRTESTKPAGTILEQTPAGGDTVSKRDNIIIRVVVSLG — higher, 0.36
- HMKDSKSALQEYALERKMGLPVYEVVDRSGPDHAPQFVIAVSLGEWRLEAKGASKRQAEQQAASLMLEEI — higher, -0.0445
- HMKDYTIDDIINSKVEHPLGGYQSRFKVGEYEVSVVGGRQTNHGDFIHTFELAIFDKNNNFLRNLTPVTID — higher, -0.411
- HMKEATTSPLDGIPGIGSKRKKALLSHFGSARSVARADIPDLMRVDGISRQVAETIYGWFHN — higher, 0.311
- HMKEDFPLLEQLRYTGEGADVTGTAEKMESIQALRSAADSGGFRATLGDIQQIPGGGLRFTLSLRGSR — higher, -0.226
